From paper PMC4347215 (Nature Communications, 2015) come the findings set out here.

Experiment [1] has as its target NA (CA/09) as antigen of the ELISA of Supplementary Fig. 5 (Influenza A virus A/California/07/2009 …, UniProt C3W6G3, strain). Nature of the experiment: ELISA. (ELISA stands for enzyme-linked immunosorbent assay.)
The target of experiment [2] is recombinant CA/09 NA (neuraminidase of A/California/07/2009) (Influenza A virus A/California/07/2009 …, UniProt C3W5S3). Put plainly: BLI. Particulars: both partners purified.
Experiment [3] addresses recombinant CA/09 NA, thrombin-cleaved (His-tag depleted) (influenza A virus A/California/07/2009 …, UniProt C3W5S3, N-linked glycans seen at Asn88, Asn146 and Asn235). Put plainly: crystal structure. Particulars: both partners purified.

B1: monoclonal antibody CD6 (whole IgG) (antibody, V domains shown)
VH: QVKLQESGGGLVQPKGSLKLSCAASGFTFNTYAMNWVRQAPGKGLEWVARIRSKSNNYATFYADSVKDRFTISRDDSQSMLYLQMHNLKTDDTAMYYCVRPSIYYYASGYLDVWGAGTTVTVSS
VL: QIVLSQSPAILSASPGEKVTMTCRTSSSVSYMHWYQQKPGSSPKPWIYATSNLASGVPFRFSGSGSGTSYSLTISRVEAEDAATYYCQQWNSNPPTFGGGTKLEIK
notes: copies: 2 + 2
One may read the Kd as the equilibrium constant for the complex coming apart. Consider B1, for which the binding result in experiment [1] was “binds”. Besides, in experiment [2], the dissociation constant Kd is about 95 nM.

B2: CD6 Fab (Fab, V domains shown)
VH: QVKLQESGGGLVQPKGSLKLSCAASGFTFNTYAMNWVRQAPGKGLEWVARIRSKSNNYATFYADSVKDRFTISRDDSQSMLYLQMHNLKTDDTAMYYCVRPSIYYYASGYLDVWGAGTTVTVSS
VL: QIVLSQSPAILSASPGEKVTMTCRTSSSVSYMHWYQQKPGSSPKPWIYATSNLASGVPFRFSGSGSGTSYSLTISRVEAEDAATYYCQQWNSNPPTFGGGTKLEIK
By stoichiometry N is commonly meant a count of units in the complex or per binding partner. For the molecule B2, the “stoichiometry N” value in experiment [3] worked out at 4 Fabs per NA tetramer. Moreover, the binding result in experiment [1] is “binds”.

B3: CD6 Fab2 (other)
VH: QVKLQESGGGLVQPKGSLKLSCAASGFTFNTYAMNWVRQAPGKGLEWVARIRSKSNNYATFYADSVKDRFTISRDDSQSMLYLQMHNLKTDDTAMYYCVRPSIYYYASGYLDVWGAGTTVTVSS
VL: QIVLSQSPAILSASPGEKVTMTCRTSSSVSYMHWYQQKPGSSPKPWIYATSNLASGVPFRFSGSGSGTSYSLTISRVEAEDAATYYCQQWNSNPPTFGGGTKLEIK
notes: F(ab')2 fragment; copies: 2 + 2
Turning to B3, the binding result in experiment [1] is reported as “binds”.
